Where a chain is given by its changes, count along the chain named.
Key:
Test in all cases: SPR
[1] = biological target: T1, dAPN-D750E ectodomain, hFc-tagged (dog (Canis lupus familiaris), UniProt P79143 33-975, D750E)
T1 sequence: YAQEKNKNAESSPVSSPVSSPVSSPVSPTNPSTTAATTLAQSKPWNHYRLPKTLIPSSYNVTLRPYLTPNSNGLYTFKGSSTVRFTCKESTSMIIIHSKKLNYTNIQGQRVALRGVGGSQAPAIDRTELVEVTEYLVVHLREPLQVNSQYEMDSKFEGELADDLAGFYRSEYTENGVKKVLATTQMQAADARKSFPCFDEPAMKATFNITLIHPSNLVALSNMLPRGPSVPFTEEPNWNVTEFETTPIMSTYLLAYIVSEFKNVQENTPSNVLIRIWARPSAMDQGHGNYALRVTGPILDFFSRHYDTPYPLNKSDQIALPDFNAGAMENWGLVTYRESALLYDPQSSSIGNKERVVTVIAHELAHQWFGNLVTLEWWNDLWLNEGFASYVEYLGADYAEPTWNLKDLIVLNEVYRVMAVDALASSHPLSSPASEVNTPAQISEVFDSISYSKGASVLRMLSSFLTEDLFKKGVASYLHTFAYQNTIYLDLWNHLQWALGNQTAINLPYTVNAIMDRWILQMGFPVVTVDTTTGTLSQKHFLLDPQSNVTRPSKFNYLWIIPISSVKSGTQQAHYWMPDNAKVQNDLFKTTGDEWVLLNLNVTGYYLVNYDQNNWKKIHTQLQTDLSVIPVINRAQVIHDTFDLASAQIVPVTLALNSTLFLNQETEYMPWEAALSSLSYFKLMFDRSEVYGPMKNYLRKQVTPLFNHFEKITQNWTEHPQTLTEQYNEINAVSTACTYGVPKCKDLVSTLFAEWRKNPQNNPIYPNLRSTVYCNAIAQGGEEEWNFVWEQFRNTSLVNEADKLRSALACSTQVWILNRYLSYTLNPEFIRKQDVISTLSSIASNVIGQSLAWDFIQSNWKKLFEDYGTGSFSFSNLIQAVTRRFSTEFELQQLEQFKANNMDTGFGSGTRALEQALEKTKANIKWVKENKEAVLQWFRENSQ

[2] = biological target: T2, dAPN-Q746K ectodomain, hFc-tagged (dog (Canis lupus familiaris), UniProt P79143 33-975, Q746K)
T2 sequence: T1 sequence with Q714K, E718D

[3] = biological target: red fox aminopeptidase N ectodomain fused with the Fc domain of human IgG (red fox (Vulpes vulpes))
[4] = biological target: Arabian camel aminopeptidase N ectodomain fused with the Fc domain of human IgG (Arabian camel (Camelus dromedarius))
[5] = biological target: giant panda aminopeptidase N ectodomain fused with the Fc domain of human IgG (giant panda (Ailuropoda melanoleuca))
[6] = biological target: horse aminopeptidase N ectodomain fused with the Fc domain of human IgG (horse (Equus caballus))

B1: TGEV RBD (receptor-binding domain of the transmissible gastroenteritis coronavirus spike protein) (domain or fragment)
chain: TANLNNGFYPVSSSEVGLVNKSVVLLPSFYTHTIVNITIDLGMKRSGYGQPIASTLSNITLPMQDNNTDVYCIRSDQFSVYVHSTCKSSLWDNIFKRNCTDVLDATAVIKTGTCPFSFDKLNNYLTFNKFCLSLSPVGANCKFDVAARTRTNEQVVRSLYVIYEEGDNIVGVPSD
B1 was tested, and the Kd [1] was 30.8 nM, the Kd [2] was 333 nM and the Kd [3] was 462 nM. For the same binder, the Kd [4] was 6360 nM, the Kd [5] was 765 nM and the Kd [6] was 2350 nM.
